Assay results from IntAct's records for PubMed 31712417.

Biological target: if4e_human EIF4E (UniProt P06730)
Sequence (P06730 whole entry): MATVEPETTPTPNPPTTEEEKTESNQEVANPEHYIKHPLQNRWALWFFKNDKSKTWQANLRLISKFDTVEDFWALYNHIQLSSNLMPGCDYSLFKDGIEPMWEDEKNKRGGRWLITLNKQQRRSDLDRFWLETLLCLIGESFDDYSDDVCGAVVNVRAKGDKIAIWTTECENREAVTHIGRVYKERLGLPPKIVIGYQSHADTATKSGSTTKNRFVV

Row | Substance | effect of a mutation on the interaction
1 | Genome polyprotein (Potato virus Y (strain N)), P18247 E1941K;E1945K | with no effect
2 | Genome polyprotein (Potato virus Y (strain N)), P18247 D1954A;D1955A;Q1959A | decreasing interaction
3 | Genome polyprotein (Potato virus Y (strain N)), P18247 D1954A;D1955A;E1957A | decreasing interaction
4 | Genome polyprotein (Potato virus Y (strain N)), P18247 V1951G;E1952K | decreasing interaction
5 | Genome polyprotein (Potato virus Y (strain N)), P18247 D1935K | with no effect
6 | Genome polyprotein (Potato virus Y (strain N)), P18247 E1929K;E1930K | with no effect
7 | Genome polyprotein (Potato virus Y (strain N)), P18247 L1961G | decreasing interaction
8 | Genome polyprotein (Potato virus Y (strain N)), P18247 M1958A;Q1959A | decreasing interaction
